# System: PthA4AT (7.5-repeat TAL effector) (Xanthomonas citri ssp. citri variant AT)
# Experiment: PBM
# Settings: not stated; PBM performed as in Godoy et al. 2011
row,Substance,binding signal [E-score]
1,PBM probes with TATCGCCTT,0.454
2,PBM probes with TATTACCTT,0.481
3,PBM probes with TATCACCTT,0.476
4,PBM probes with ATATCACCT,0.46
5,PBM probes with TTATTACCC,0.46
6,PBM probes with TATTACCTC,0.466
7,PBM probes with TATTACCCC,0.458
8,PBM probes with ATTATTACC,0.456
9,PBM probes with TTATTACCT,0.476
10,PBM probes with TTATCACCT,0.464
11,PBM probes with TATAACCTT,0.462
